Biological target: T1, PUS7(Δ1-98) (Homo sapiens, UniProt Q96PZ0 99-661, del1-98)
T1 sequence: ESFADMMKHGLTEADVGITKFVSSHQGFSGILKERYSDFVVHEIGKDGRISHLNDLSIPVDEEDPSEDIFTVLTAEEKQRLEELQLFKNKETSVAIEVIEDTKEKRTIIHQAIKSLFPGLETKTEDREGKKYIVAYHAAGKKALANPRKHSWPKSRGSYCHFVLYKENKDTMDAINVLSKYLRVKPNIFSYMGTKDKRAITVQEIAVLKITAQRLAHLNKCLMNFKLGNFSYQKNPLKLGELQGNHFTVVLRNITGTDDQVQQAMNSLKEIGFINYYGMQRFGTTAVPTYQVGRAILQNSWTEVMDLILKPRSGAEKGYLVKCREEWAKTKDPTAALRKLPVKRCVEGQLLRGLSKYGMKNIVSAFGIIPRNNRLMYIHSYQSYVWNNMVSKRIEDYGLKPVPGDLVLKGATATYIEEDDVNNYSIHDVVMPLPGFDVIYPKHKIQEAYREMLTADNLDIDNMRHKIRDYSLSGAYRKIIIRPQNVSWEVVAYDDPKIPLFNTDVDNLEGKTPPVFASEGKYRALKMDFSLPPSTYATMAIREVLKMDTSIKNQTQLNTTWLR
Experiment: filter binding

Binder: GGGGCCCCAUGGUGUAAUGG (ssRNA) [18mer-cy-tRNAGln]
- Kd: 267 ± 91 nM

From paper PMC8599909
